In PMC5603801:

Target: PnpM-His6 (C-terminal His-tagged PnpM, LysR-type transcriptional regulator of Pseudomonas sp. strain WBC-3) (Pseudomonas sp. strain WBC-3)
Assay: SEC; analytical gel filtration of PnpM-His6 on Hiload Superdex 200 pg (1.6 x 60 cm); 10 mM Tris-HCl pH 7.5, 0.1 M NaCl, 5% glycerol; 0.5 ml/min; buffer with or without PNP; native mass from a calibration curve of standard proteins

PnpM-His6 (C-terminal His-tagged PnpM, LysR-type transcriptional regulator of Pseudomonas sp. strain WBC-3) (natural protein)
stoichiometry N: 4
